Results taken from publication doi:10.1101/2024.09.11.612445 (bioRxiv, 2024).

T1: recombinant CSTF3 21-549 (human, UniProt Q12996 21-549)
T1 sequence (looked up): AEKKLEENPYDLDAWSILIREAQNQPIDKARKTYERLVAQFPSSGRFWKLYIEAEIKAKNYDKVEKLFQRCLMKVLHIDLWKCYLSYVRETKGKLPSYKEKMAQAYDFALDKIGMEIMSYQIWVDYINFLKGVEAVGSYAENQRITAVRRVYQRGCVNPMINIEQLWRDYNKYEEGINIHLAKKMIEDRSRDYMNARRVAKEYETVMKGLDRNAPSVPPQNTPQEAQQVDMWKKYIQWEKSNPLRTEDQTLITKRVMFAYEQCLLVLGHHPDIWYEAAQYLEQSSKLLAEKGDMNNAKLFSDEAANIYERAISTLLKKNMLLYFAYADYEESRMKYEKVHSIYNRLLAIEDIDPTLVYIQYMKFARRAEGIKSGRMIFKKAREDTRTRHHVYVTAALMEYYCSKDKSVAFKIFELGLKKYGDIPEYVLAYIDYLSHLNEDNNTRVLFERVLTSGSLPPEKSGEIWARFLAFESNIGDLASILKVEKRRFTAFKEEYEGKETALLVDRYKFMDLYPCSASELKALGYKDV

B1: GST-WDR33 431-485 wild-type (domain or fragment, human, UniProt Q9C0J8 431-485, looked up)
chain: DDLEPNSLAVIPGMGIPEQLKLAMEQEQMGKDESNEIEMTIPGLDWGMEEVMQKD

What was measured:
[1] = target: T1, recombinant CSTF3 21-549; assay: pull-down
[2] = target: T1, recombinant CSTF3 21-549; assay: ITC

| Binder | binding result [1] | binding result [2] |
| --- | --- | --- |
| B1 | binds | – |
| SPTVDDEEEMLYGDS (peptide, UniProt Q10570 737-751, looked up) [CPSF1 737-751 wild-type peptide] | – | binds |
